{"source": "patent US20210040185A1", "experiment_in_all_cases": "cell-based or functional assay", "key": {"[1]": {"molecular_target": "HIV-1 envelope (Env) of virus AC10.0.29 (HIV-1)"}, "[2]": {"molecular_target": "HIV-1 envelope (Env) of virus CAP45.2.00.G3 (HIV-1)"}, "[3]": {"molecular_target": "HIV-1 envelope (Env) of virus CNE20 (HIV-1)"}, "[4]": {"molecular_target": "HIV-1 envelope (Env) of virus DU172.17 (HIV-1)"}, "[5]": {"molecular_target": "HIV-1 envelope (Env) of virus REJO4541.67 (HIV-1)"}, "[6]": {"molecular_target": "HIV-1 envelope (Env) of virus WITO4160.33 (HIV-1)"}}, "data": [{"substance": "3BNC117 (antibody)", "values": [{"measurement": "IC50 of viral neutralization (Env.IMC.LucR virus, TZM-BL reporter cells)", "setting": "[1]", "result": 11, "unit": "µg/mL"}, {"measurement": "IC50 of viral neutralization (Env.IMC.LucR virus, TZM-BL reporter cells)", "setting": "[2]", "result": 2.7, "unit": "µg/mL"}, {"measurement": "IC50 of viral neutralization (Env.IMC.LucR virus, TZM-BL reporter cells)", "setting": "[3]", "result": "> 50", "unit": "µg/mL"}, {"measurement": "IC50 of viral neutralization (Env.IMC.LucR virus, TZM-BL reporter cells)", "setting": "[4]", "result": 1.25, "unit": "µg/mL"}, {"measurement": "IC50 of viral neutralization (Env.IMC.LucR virus, TZM-BL reporter cells)", "setting": "[5]", "result": 0.07, "unit": "µg/mL"}, {"measurement": "IC50 of viral neutralization (Env.IMC.LucR virus, TZM-BL reporter cells)", "setting": "[6]", "result": 0.053, "unit": "µg/mL"}]}]}
